Square brackets hold non-standard residues; d marks the D form. Ends that are not written are not given here. pT = C[C@@H](OP(=O)(O)O)[C@H](N)C(=O)O; pS = N[C@@H](COP(=O)(O)O)C(=O)O Where only a bound is given, the exact number is not on record here.

Test [1] has as its target aprataxin FHA domain (residues 1-105). Nature of the test: NMR titration; unlabelled XRCC1 peptide added to 92 μM 15N-labelled aprataxin FHA domain up to 1:4; 22 °C; 20 mM Na acetate pH 5.8, 50 mM NaCl, 2 mM DTT; SOFAST-HMQC; apparent Kd, mean of the fits for D37, V45, Q46, V61 and V63.
The target is the same in test [2]. Briefly: ITC; peptide injected (30 x 10 ul) into FHA domain in the cell; 22 °C; 50 mM HEPES pH 7.5, 150 mM NaCl, 5 mM β-mercaptoethanol; XRCC1 peptides 1 mM into 100 μM protein, XRCC4 peptides 300 μM into 30 μM protein; single-site binding model.
Test [3] has as its target aprataxin FHA domain K38A (residues 1-105). The description is as above.

B1: XRCC1 515-529 peptide phosphorylated on Ser518, Thr519 and Thr523 (peptide)
peptide: YAG[pS][pT]DEN[pT]DSEEHQ-NH2
modifications: N-terminus assumed
SMILES: C[C@H](NC(=O)[C@@H](N)Cc1ccc(O)cc1)C(=O)NCC(=O)N[C@@H](COP(=O)(O)O)C(=O)N[C@H](C(=O)N[C@@H](CC(=O)O)C(=O)N[C@@H](CCC(=O)O)C(=O)N[C@@H](CC(N)=O)C(=O)N[C@H](C(=O)N[C@@H](CC(=O)O)C(=O)N[C@@H](CO)C(=O)N[C@@H](CCC(=O)O)C(=O)N[C@@H](CCC(=O)O)C(=O)N[C@@H](Cc1c[nH]cn1)C(=O)N[C@@H](CCC(N)=O)C(N)=O)[C@@H](C)OP(=O)(O)O)[C@@H](C)OP(=O)(O)O
For the molecule B1, the Kd in test [1] was under 1 µM. In test [2], the fold increase in binding over the di-phosphorylated peptide was 3 fold and the fold preference over the mono-phosphorylated (pT233) XRCC4 peptide amounted to 5 fold. In test [3], this molecule returned a fold decrease in binding relative to the wild-type of 8.8 fold.

B2: XRCC1 515-529 peptide phosphorylated solely on Thr523 (peptide)
peptide: YAGSTDENTDSEEHQ
HELM: PEPTIDE1{Y.A.G.S.T.D.E.N.[C[C@@H](OP(=O)(O)O)[C@H](N[*:1])C(=O)[*:2]].D.S.E.E.H.Q.[am]}$$$$V2.0; N-terminus assumed
SMILES: C[C@H](NC(=O)[C@@H](N)Cc1ccc(O)cc1)C(=O)NCC(=O)N[C@@H](CO)C(=O)N[C@H](C(=O)N[C@@H](CC(=O)O)C(=O)N[C@@H](CCC(=O)O)C(=O)N[C@@H](CC(N)=O)C(=O)N[C@H](C(=O)N[C@@H](CC(=O)O)C(=O)N[C@@H](CO)C(=O)N[C@@H](CCC(=O)O)C(=O)N[C@@H](CCC(=O)O)C(=O)N[C@@H](Cc1c[nH]cn1)C(=O)N[C@@H](CCC(N)=O)C(N)=O)[C@@H](C)OP(=O)(O)O)[C@@H](C)O
As for B2, the Kd in test [1] worked out at 7 µM.

B3: XRCC1 515-529 peptide phosphorylated on Thr519 (peptide)
peptide: YAGSTDENTDSEEHQ
HELM: PEPTIDE1{Y.A.G.S.[C[C@@H](OP(=O)(O)O)[C@H](N[*:1])C(=O)[*:2]].D.E.N.T.D.S.E.E.H.Q.[am]}$$$$V2.0; N-terminus assumed
SMILES: C[C@H](NC(=O)[C@@H](N)Cc1ccc(O)cc1)C(=O)NCC(=O)N[C@@H](CO)C(=O)N[C@H](C(=O)N[C@@H](CC(=O)O)C(=O)N[C@@H](CCC(=O)O)C(=O)N[C@@H](CC(N)=O)C(=O)N[C@H](C(=O)N[C@@H](CC(=O)O)C(=O)N[C@@H](CO)C(=O)N[C@@H](CCC(=O)O)C(=O)N[C@@H](CCC(=O)O)C(=O)N[C@@H](Cc1c[nH]cn1)C(=O)N[C@@H](CCC(N)=O)C(N)=O)[C@@H](C)O)[C@@H](C)OP(=O)(O)O
As to B3, the Kd in test [1] was 7 µM. The molecule also had a fold decrease in binding relative to the wild-type in test [3] of 2.7 fold.

B4: XRCC4 229-237 peptide phosphorylated on Ser232 and Thr233 (peptide)
peptide: YDESTDEES
HELM: PEPTIDE1{Y.D.E.[O=C([C@H](COP(=O)(O)O)N[*:1])[*:2]].[C[C@@H](OP(=O)(O)O)[C@H](N[*:1])C(=O)[*:2]].D.E.E.S.[am]}$$$$V2.0; N-terminus assumed
SMILES: C[C@@H](OP(=O)(O)O)[C@H](NC(=O)[C@H](COP(=O)(O)O)NC(=O)[C@H](CCC(=O)O)NC(=O)[C@H](CC(=O)O)NC(=O)[C@@H](N)Cc1ccc(O)cc1)C(=O)N[C@@H](CC(=O)O)C(=O)N[C@@H](CCC(=O)O)C(=O)N[C@@H](CCC(=O)O)C(=O)N[C@@H](CO)C(N)=O
In turn, B4 came in with a fold increase in binding over the mono-phosphorylated peptide in test [2] of 8 fold. Besides, the fold decrease in binding relative to the wild-type in test [3] came out at 7.6 fold.

B5: XRCC4 229-237 peptide phosphorylated on Thr233 (peptide)
peptide: YDESTDEES
HELM: PEPTIDE1{Y.D.E.S.[C[C@@H](OP(=O)(O)O)[C@H](N[*:1])C(=O)[*:2]].D.E.E.S.[am]}$$$$V2.0; N-terminus assumed
SMILES: C[C@@H](OP(=O)(O)O)[C@H](NC(=O)[C@H](CO)NC(=O)[C@H](CCC(=O)O)NC(=O)[C@H](CC(=O)O)NC(=O)[C@@H](N)Cc1ccc(O)cc1)C(=O)N[C@@H](CC(=O)O)C(=O)N[C@@H](CCC(=O)O)C(=O)N[C@@H](CCC(=O)O)C(=O)N[C@@H](CO)C(N)=O
B5 gave a fold tighter binding than the XRCC1 pThr519 peptide in test [2] of 8 fold. For the same molecule, the fold decrease in binding relative to the wild-type in test [3] came to 3.2 fold.

B6: XRCC4 229-237 peptide phosphorylated on Ser232, Thr233 and Ser237 (peptide)
peptide: YDE[pS][pT]DEE[pS]-NH2
modifications: N-terminus assumed
SMILES: C[C@@H](OP(=O)(O)O)[C@H](NC(=O)[C@H](COP(=O)(O)O)NC(=O)[C@H](CCC(=O)O)NC(=O)[C@H](CC(=O)O)NC(=O)[C@@H](N)Cc1ccc(O)cc1)C(=O)N[C@@H](CC(=O)O)C(=O)N[C@@H](CCC(=O)O)C(=O)N[C@@H](CCC(=O)O)C(=O)N[C@@H](COP(=O)(O)O)C(N)=O
B6 gave a fold decrease in binding relative to the wild-type in test [3] of 9.3 fold.

B7: XRCC1 515-529 peptide phosphorylated on Ser518 and Thr519 (peptide)
peptide: YAGSTDENTDSEEHQ
HELM: PEPTIDE1{Y.A.G.[O=C([C@H](COP(=O)(O)O)N[*:1])[*:2]].[C[C@@H](OP(=O)(O)O)[C@H](N[*:1])C(=O)[*:2]].D.E.N.T.D.S.E.E.H.Q.[am]}$$$$V2.0; N-terminus assumed
SMILES: C[C@H](NC(=O)[C@@H](N)Cc1ccc(O)cc1)C(=O)NCC(=O)N[C@@H](COP(=O)(O)O)C(=O)N[C@H](C(=O)N[C@@H](CC(=O)O)C(=O)N[C@@H](CCC(=O)O)C(=O)N[C@@H](CC(N)=O)C(=O)N[C@H](C(=O)N[C@@H](CC(=O)O)C(=O)N[C@@H](CO)C(=O)N[C@@H](CCC(=O)O)C(=O)N[C@@H](CCC(=O)O)C(=O)N[C@@H](Cc1c[nH]cn1)C(=O)N[C@@H](CCC(N)=O)C(N)=O)[C@@H](C)O)[C@@H](C)OP(=O)(O)O
On to B7, for which the Kd in test [1] came out at 2 µM. Besides, the fold increase in binding over the mono-phosphorylated peptide in test [2] turned out to be 11 fold. The same molecule came in with a fold decrease in binding relative to the wild-type in test [3] of 8.5 fold.

Values taken from PMC4655838, “Versatility in phospho-dependent molecular recognition of the XRCC1 and XRCC4 DNA-damage scaffolds by aprataxin-family FHA domains” (DNA Repair, 2015).
